“And” between values parts separate entries of the source, which are not always exact repeats. Equal values may be shown once.
How the values were obtained:
GlyR3 [1] = molecular target: T1, GlyR3 (Acetivibrio thermocellus, UniProt A3DJ78); experiment: EMSA, release of GlyR3 from biotin-labelled celC operator DNA (ImageJ); type: binding; settings: GlyR3 150 ng (387 nM); celC DNA 0.2 ng (0.156 nM); laminaribiose 70 μg (100 mM); effector, dissociates repressor from celC site
T1 construct: gene Cthe_2808; full gene cloned in pTXB1, expressed in E. coli T7 Express C2566, purified with the IMPACT (intein) system
T1 sequence (A3DJ78 1-345): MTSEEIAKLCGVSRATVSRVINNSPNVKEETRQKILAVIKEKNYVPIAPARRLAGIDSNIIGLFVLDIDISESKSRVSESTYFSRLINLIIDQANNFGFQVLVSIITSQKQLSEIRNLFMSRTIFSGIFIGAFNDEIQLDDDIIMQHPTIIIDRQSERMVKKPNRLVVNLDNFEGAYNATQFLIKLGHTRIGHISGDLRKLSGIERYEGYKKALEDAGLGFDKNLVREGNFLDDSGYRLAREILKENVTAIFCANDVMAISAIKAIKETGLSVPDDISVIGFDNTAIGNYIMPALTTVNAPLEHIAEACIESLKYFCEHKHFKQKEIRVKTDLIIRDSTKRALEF

[2] = molecular target: T2, GlyR3 (Clostridium thermocellum) (UniProt Q9AL35); experiment: EMSA; settings: LightShift Chemiluminescent EMSA kit, TBE gel; 0.2 ng biotin-DNA (0.156-0.204 nM), GlyR3 150 ng (387 nM) unless titrated; binding buffer salt, pH and …
T2 sequence: T1 sequence (A3DJ78 1-345)

GlyR3 [3] = molecular target: T3, GlyR3 (Clostridium thermocellum, UniProt Q9AL35 1-345); experiment: EMSA; settings: LightShift Chemiluminescent EMSA kit, TBE gel, 0.2 ng biotin-DNA (0.156-0.204 nM), GlyR3 150 ng (387 nM) unless titrated, binding buffer salt, pH and …
T3 sequence: T1 sequence (A3DJ78 1-345)

GlyR3 [4] = molecular target: T3, GlyR3; experiment: competition; 500 ng 18-mer reverses shift of manB probe; LightShift Chemiluminescent EMSA kit, TBE gel; 0.2 ng biotin-DNA (0.156-0.204 nM), GlyR3 150 ng (387 nM) unless titrated; binding buffer salt, pH and temperature not given; settings: protein: recombinant; tags: expressed from pTXB1 (IMPACT intein system, NEB); chain copies: 2; label: unlabeled; blunt
GlyR3 [5] = molecular target: T3, GlyR3; experiment: competition; 500 ng 18-mer reverses shift of celC probe; LightShift Chemiluminescent EMSA kit, TBE gel; 0.2 ng biotin-DNA (0.156-0.204 nM), GlyR3 150 ng (387 nM) unless titrated; binding buffer salt, pH and temperature not given; settings: protein: recombinant; tags: expressed from pTXB1 (IMPACT intein system, NEB); chain copies: 2; label: unlabeled; blunt
[6] = 387 nM GlyR3, 50 mM laminaribiose
[7] = 387 nM GlyR3, 100 mM laminaribiose

Q: How did the “% celC DNA shifted at 100 mM laminaribiose” value (GlyR3 [1]) turn out when `OC[C@H]1O[C@@H](O[C@H]2[C@H](O)[C@@H](CO)OC(O)[C@@H]2O)[C@H](O)[C@@H](O)[C@@H]1O` (stereo partly drawn) [laminaribiose] was run?
A: 67%

Q: Which results are given for “CCGAATAAAAACTGGACAGAGAAGAAGAAAACGTGATATAATTAAATTAGAATGAACGCGCGTACATTATTGAATAATCCAGTGTTAAATGGTTTCAGTTTACGATTTCAAATGTTTATATCCAATTTACATTTAAAAACATACAAAACATCAAAAGTATTTAATACCAATATTTAAAACACAATATTTCAGGAGGA (double strand) [celC EMSA fragment]”?
A: binding [2]: binds; binding signal [2]: 99 % shifted

Q: With “TCGGTGAATGTTGAGGTTGACAAGGAAGGACTTTATGAAATATTCATCTGCTATGTGCAGCCTTACGACAAAAACAAAAAAGTGCAGTATCTTAATGTAAACGGTGTCAATCAGGGAGAAATAAGCTTTCCGTTTACTCTTAAATGGAGAGAGATTTCAGCAGGA (double strand) [manB EMSA fragment]” as the molecule, how does the binding [2] read?
A: binds more weakly

Q: And the binding signal [2]?
A: 18 % shifted (2×) and 19 % shifted

Q: How did the binding [2] turn out when “TGAGCAAATCAATTGTAATATGAAGAAAAATATAGTAAGATATTAATAAAAGAATAAAATAATATATTGGTATAATATGTAAATCGGTTGCAGTAATGCTATTCCAATAAAAGATGAAAGATTTCCGTTAATTCATTGAAAGAAACGTTCTGCTGCA (double strand) [celT EMSA fragment]” was run?
A: no binding

Q: “TGTTATCTTCGGTTAGCTCATCAAGGTAATCATAGAATATATTATAAAGAGTAACAAAGTAAATAAACTCAGGTGTATTTTCTTTATATAGAATTCTCATTTGCTCAAGAACTTTATCTTTAACATCCTGAACAGCAGTATCATCCTCCCA (double strand) [random control DNA fragment]” was tested. Which binding [2] did it give?
A: no binding

Q: For celC EMSA fragment, which binding signal (GlyR3 [3]; [6]) is on record?
A: 82 % shifted

Q: And the binding signal (GlyR3 [3]; [7])?
A: 67 % shifted

Q: And the binding signal (GlyR3 [3]; 387 nM GlyR3, no laminaribiose)?
A: 99 % shifted

Q: What does the source list for manB EMSA fragment?
A: binding signal (GlyR3 [3]; [6]): 18 % shifted; binding signal (GlyR3 [3]; [7]): 19 % shifted; binding signal (GlyR3 [3]; 387 nM GlyR3, no laminaribiose): 18 % shifted

B1: manB 18-mer competitor (dsDNA)
DNA 1: AATGTAAACGGTGTCAAT
DNA 2: ATTGACACCGTTTACATT
Q: Does B1 bind (GlyR3 [4])?
A: binds

B2: celC 18-mer competitor (dsDNA)
DNA 1: AATGAACGCGCGTACATT
DNA 2: AATGTACGCGCGTTCATT
Q: Does B2 bind (GlyR3 [5])?
A: binds
